From publication PMC10287957, “RecF protein targeting to postreplication (daughter strand) gaps I: DNA binding by RecF and RecFR”

Legend:
RecF [1] = target: T1, RecF (Escherichia coli, UniProt P0A7H0 1-357); assay: fluorescence anisotropy; details: 30 mM Tris-Cl pH 7.5, 100 mM NaCl, 10 mM MgCl2, 0.1 mM EDTA, 1 mM DTT, 30% glycerol, 0.1 mg/ml BSA, 10 nM DNA, 25 C, 3 mM ATP and 5 uM RecR where indicated
T1 sequence: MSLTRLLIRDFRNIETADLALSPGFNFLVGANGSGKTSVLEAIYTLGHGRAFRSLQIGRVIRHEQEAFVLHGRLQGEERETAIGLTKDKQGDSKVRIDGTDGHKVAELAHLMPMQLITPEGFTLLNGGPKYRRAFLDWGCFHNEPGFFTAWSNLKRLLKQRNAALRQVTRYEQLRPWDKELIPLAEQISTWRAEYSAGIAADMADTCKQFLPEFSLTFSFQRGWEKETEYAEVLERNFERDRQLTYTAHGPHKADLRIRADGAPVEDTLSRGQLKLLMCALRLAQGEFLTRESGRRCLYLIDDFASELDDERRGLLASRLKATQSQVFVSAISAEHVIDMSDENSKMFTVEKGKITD

[2] = target: RecF;RecR (Escherichia coli;Escherichia coli) (UniProt P0A7H0); assay: fluorescence anisotropy; details: 3 mM ATP, 5 uM RecR, 30 mM Tris-Cl pH 7.5, 100 mM NaCl, 10 mM MgCl2, 0.1 mM EDTA, 1 mM DTT, 30% glycerol, 0.1 mg/ml BSA, 10 nM DNA, 25 C, 3 mM ATP and 5 uM RecR where indicated
RecF [3] = target: T1, RecF; assay: fluorescence anisotropy; 3 mM ATP; 30 mM Tris-Cl pH 7.5, 100 mM NaCl, 10 mM MgCl2, 0.1 mM EDTA, 1 mM DTT, 30% glycerol, 0.1 mg/ml BSA, 10 nM DNA, 25 C; 3 mM ATP and 5 uM RecR where indicated; details: protein: recombinant; chain copies: 2; label: 5' FAM

20mer dsDNA 5FAM
Kd (RecF [1]; 3 mM ATP, h 2.4): 0.067 µM | Kd [2]: 109 nM

20mer ssDNA 5FAM
Kd (RecF [1]; 3 mM ATP, h 1.1): 0.64 µM

31mer dsDNA 5FAM
Kd (RecF [1]): 0.108 µM

40mer dsDNA 5FAM
Kd (RecF [1]): 0.175 µM

40mer ssDNA 5FAM (random sequence)
Kd (RecF [1]): 0.134 µM

iFAM css (circular 50mer)
Kd (RecF [1]; circularized by ligation): 0.0978 µM | Kd ([2]; circularized by ligation): 68.4 nM

iFAM ss 50mer (dephosphorylated)
Kd (RecF [1]): 0.112 µM

iFAM ss_5P 50mer
Kd (RecF [1]; 5' phosphate): 0.116 µM | Kd (RecF [1]; no ATP, Kd nearly in the uM range, h 1, 5' phosphate): 1 µM

TTTTTTTTTTTTTTTTTTTTTTTTTTTTTTT (ssDNA) [31 polydT ssDNA 5FAM]
Kd (RecF [3]): 93 nM
